Experimental data from patent US9796965B2, “Use of Taq polymerase mutant enzymes for nucleic acid amplification in the presence of PCR inhibitors” (DNA Polymerase Technology Inc., priority 2006, dated 2017).
Entries after “also recorded” stand apart in the source; their conditions may differ.

What was measured:
[1] = test system: 0.32 kbp 16S microbial target; assay: Real-time PCR of 16S microbial target double challenged with 5% blood and SYBR green dilutions; details: for amplification under double challenge: SYBR green dilutions from 32×, 40 cycles
630 bp CCR5 gene target = assay: Real-time PCR of human CCR5 target mixed with crude soil extract and SYBR titration; type: biochemical; details: 4 ng human DNA mixed with crude soil extract, SYBR titrated
Description: A 630 bp CCR5 gene target was amplified from 4 ng of human DNA mixed with crude soil extract and various amounts of SYBR. Klentaq-10 mutant enzyme was compared to it's wild type precursor, and FLAC-22 (SEQ ID NO: 2) was compared to the wild type Fast Start Taq polymerase (Roche). SYBR Green fluorescent dye was titrated to optimize the fluorescent signal for real time detection. PCR was performed in real-time cycler Opticon2, and the amplified products were analyzed both by gel electrophoresis (bottom panels) and SYBR Green dye melting curve profile (top panels).

[2] = test system: 0.6 kbp Bacillus cereus target DNA; assay: Real-time PCR of 0.6 kbp Bacillus cereus target challenged with two-fold SYBR green dilutions; details: for SYBR concentration above which amplification failed / SYBR concentration in the presence of which the 0.6 kbp Bacillus cereus target DNA was amplified: 2.5 units enzyme per 50 ul, 20 pg genomic DNA, 40 cycles, no blood
[3] = Functional analysis of codon 708 saturated mutagenesis variants for resistance to PCR inhibitors; type: biochemical; details: for functionality of the 708 substitution: KlenTaq or full-length Taq background
Description: Single amino acid changes of the wild type Taq Glu708 were implicated in both selected qualities of the mutants, blood and soil-resistance.
Saturated mutagenesis was performed at codon 708 of Taq to test functionally the full spectrum of all possible substitutions at this critical position.

[4] = test system: 0.25 kbp Lambda specific target; assay: Real-time PCR of Lambda target challenged with two-fold SYBR green dilutions; details: for SYBR concentration in the presence of which the 0.25 kbp lambda target was amplified: purified DNA template, 2.5 units per 50 ul, 35 cycles
[5] = test system: 244 bp influenza virus target; type: biochemical; details: 5% human serum, 200 μM TaqMan probe, PEC-Plus enhancer
[6] = test system: 244 bp influenza virus RNA target; type: biochemical; details: purified RNA and mimic crude samples with 8% plasma, serum, whole blood; PEC-Plus enhancer
[7] = test system: anthrax genome target (1.3 kb Bacillus anthracis); type: biochemical; details: 5% human blood, 32× SYBR Green
[8] = test system: 0.6 kbp Bacillus cereus target DNA; assay: Real-time PCR of Bacillus cereus target double challenged with 5% and 10% blood and SYBR green dilutions
[9] = test system: endogenous 600 bp target of Bacillus Cereus; assay: Real-time PCR of endogenous Bacillus Cereus target from crude soil extract; type: biochemical; details: soil extract 16%, 8%, 4%, 2%

Question: Which “post PCR melting curve analysis” value ([1]; 5% blood) does the source give for “Fast Start Taq: commercial wild type Taq enzyme (Roche)” here?
Answer: did do not show the correct melting temperature of the product at all

Question: And the “amplification under double challenge” value ([1]; 5% blood)?
Answer: able to amplify only the positive control

Question: What about the “melting curve profile in crude soil samples” value (630 bp CCR5 gene target) of the same molecule?
Answer: showed a melting curve at very low SYBR concentration

Question: And the “SYBR concentration above which amplification failed” value [2]?
Answer: higher than 0.2 ×

Question: Which “functionality of the 708 substitution” value [3] does the source give for “FLAC-12: full-length Taq mutant with L substitution at 708, corresponding to Klentaq 12” here?
Answer: efficient

Question: Which “functionality of the 708 substitution” value [3] does the source give for “FLAC-3: full-length Taq mutant with Q substitution at 708” here?
Answer: only functional in Taq

Question: With “FLAC-10: full-length Taq mutant with K substitution at 708, corresponding to Klentaq10” as the molecule, how does the “functionality of the 708 substitution” value [3] read?
Answer: efficient

Question: Which “functionality of the 708 substitution” value [3] does the source give for “FLAC-4: full-length Taq mutant with I substitution at 708” here?
Answer: only functional in Taq

B1: FLAC-22: SEQ ID NO: 2; full-length Taq with substitutions E626K, I707L, E708N (protein)
chain: MRGMLPLFEPKGRVLLVDGHHLAYRTFHALKGLTTSRGEPVQAVYGFAKSLLKALKEDGDAVIVVFDAKAPSFRHEAYGGYKAGRAPTPEDFPRQLALIKELVDLLGLARLEVPGYEADDVLASLAKKAEKEGYEVRILTADKDLYQLLSDRIHVLHPEGYLITPAWLWEKYGLRPDQWADYRALTGDESDNLPGVKGIGEKTARKLLEEWGSLEALLKNLDRLKPAIREKILAHMDDLKLSWDLAKVRTDLPLEVDFAKRREPDRERLRAFLERLEFGSLLHEFGLLESPKALEEAPWPPPEGAFVGFVLSRKEPMWADLLALAAARGGRVHRAPEPYKALRDLKEARGLLAKDLSVLALREGLGLPPGDDPMLLAYLLDPSNTTPEGVARRYGGEWTEEAGERAALSERLFANLWGRLEGEERLLWLYREVERPLSAVLAHMEATGVRLDVAYLRALSLEVAEEIARLEAEVFRLAGHPFNLNSRDQLERVLFDELGLPAIGKTEKTGKRSTSAAVLEALREAHPIVEKILQYRELTKLKSTYIDPLPDLIHPRTGRLHTRFNQTATATGRLSSSDPNLQNIPVRTPLGQRIRRAFIAEEGWLLVALDYSQIELRVLAHLSGDKNLIRVFQEGRDIHTETASWMFGVPREAVDPLMRRAAKTINFGVLYGMSAHRLSQELAIPYEEAQAFIERYFQSFPKVRAWLNKTLEEGRRRGYVETLFGRRRYVPDLEARVKSVREAAERMAFNMPVQGTAADLMKLAMVKLFPRLEEMGARMLLQVHDELVLEAPKERAEAVARLAKEVMEGVYPLAVPLEVEVGIGEDWLSAKE
modifications: FLAC-22
notes: full-length Taq with substitutions E626K, I707L, E708N
Question: What does the source list for B1?
Answer: resistance to PCR inhibitors among all 708 mutant variants [3]: superior in all aspects of inhibitors resistance to PCR inhibitors; functionality of the 708 substitution [3]: only functional in Taq; SYBR concentration in the presence of which the 0.25 kbp lambda target was amplified [4]: 2 ×; resistance toward SYBR green ([4]; without blood in the reaction (comparison value given in Example 4)): 2 ×; amplification under double challenge ([1]; 5% blood): capable of amplifying with all SYBR concentrations; SYBR green necessary for real-time PCR detection ([1]; 5% blood, melting curve analysis): at least 4 ×; resistance toward SYBR green ([1]; with 5% blood in the reaction): at least 32 ×; real-time RT-PCR TaqMan detection of influenza virus gene [5]: work in RT-PCR TaqMan assays; SYBR concentration in the presence of which the 0.6 kbp Bacillus cereus target DNA was amplified [2]: 1.6 ×; RT-PCR amplification of influenza virus gene [6]: work in RT-PCR; amplification/detection of Bacillus anthracis target in blood [7]: successful real-time PCR detection

B2: KlenTaq-10: SEQ ID NO: 1; N-terminal deletion at 278 of full-length wild type Taq with substitutions E626K, I707L, E708K (protein)
chain: MGLLHEFGLLESPKALEEAPWPPPEGAFVGFVLSRKEPMWADLLALAAARGGRVHRAPEPYKALRDLKEARGLLAKDLSVLALREGLGLPPGDDPMLLAYLLDPSNTTPEGVARRYGGEWTEEAGERAALSERLFANLWGRLEGEERLLWLYREVERPLSAVLAHMEATGVRLDVAYLRALSLEVAEEIARLEAEVFRLAGHPFNLNSRDQLERVLFDELGLPAIGKTEKTGKRSTSAAVLEALREAHPIVEKILQYRELTKLKSTYIDPLPDLIHPRTGRLHTRFNQTATATGRLSSSDPNLQNIPVRTPLGQRIRRAFIAEEGWLLVALDYSQIELRVLAHLSGDKNLIRVFQEGRDIHTETASWMFGVPREAVDPLMRRAAKTINFGVLYGMSAHRLSQELAIPYEEAQAFIERYFQSFPKVRAWLKKTLEEGRRRGYVETLFGRRRYVPDLEARVKSVREAAERMAFNMPVQGTAADLMKLAMVKLFPRLEEMGARMLLQVHDELVLEAPKERAEAVARLAKEVMEGVYPLAVPLEVEVGIGEDWLSAKE
modifications: Klentaq-10
notes: N-terminal deletion at 278 of full-length wild type Taq with substitutions E626K, I707L, E708K
Question: For B2, which “SYBR concentration allowing amplification compared to wild type KlenTaq” value ([8]; 5% and 10% blood, SYBR dilutions from 64×) is on record?
Answer: at least two times higher concentration of SYBR

Question: What about the “resistance toward SYBR green” value ([8]; with blood (5%, 10%) in the reaction) of the same molecule?
Answer: at least 64 ×

Question: And the “resistance to PCR inhibitors among all 708 mutant variants” value [3]?
Answer: superior in all aspects of inhibitors resistance to PCR inhibitors

Question: What about the “functionality of the 708 substitution” value [3] of the same molecule?
Answer: efficient

Question: And the “SYBR concentration in the presence of which the 0.25 kbp lambda target was amplified” value [4]?
Answer: at least 4 ×

Question: What about the “real-time RT-PCR TaqMan detection of influenza virus gene” value [5] of the same molecule?
Answer: work in RT-PCR TaqMan assays

Question: What about the “SYBR concentration in the presence of which the 0.6 kbp Bacillus cereus target DNA was amplified” value [2] of the same molecule?
Answer: 4 ×

Question: And the “resistance toward SYBR green” value ([2]; no blood in the reaction (comparison value given in Example 3))?
Answer: 4 ×

Question: And the “RT-PCR amplification of influenza virus gene” value [6]?
Answer: work in RT-PCR

Question: What about the “amplification/detection of Bacillus anthracis target in blood” value [7] of the same molecule?
Answer: specifically amplified the target in 5% blood

Question: And the “amplification in the presence of crude soil extract” value [9]?
Answer: outperforming the two commercial Tags; also recorded: amplified successfully

B3: wild type KlenTaq: SEQ ID NO: 3; N-terminal deletion at 278 of full-length Taq, Met/Gly replacing amino acids 279 and 280 (protein)
chain: MGLLHEFGLLESPKALEEAPWPPPEGAFVGFVLSRKEPMWADLLALAAARGGRVHRAPEPYKALRDLKEARGLLAKDLSVLALREGLGLPPGDDPMLLAYLLDPSNTTPEGVARRYGGEWTEEAGERAALSERLFANLWGRLEGEERLLWLYREVERPLSAVLAHMEATGVRLDVAYLRALSLEVAEEIARLEAEVFRLAGHPFNLNSRDQLERVLFDELGLPAIGKTEKTGKRSTSAAVLEALREAHPIVEKILQYRELTKLKSTYIDPLPDLIHPRTGRLHTRFNQTATATGRLSSSDPNLQNIPVRTPLGQRIRRAFIAEEGWLLVALDYSQIELRVLAHLSGDENLIRVFQEGRDIHTETASWMFGVPREAVDPLMRRAAKTINFGVLYGMSAHRLSQELAIPYEEAQAFIERYFQSFPKVRAWIEKTLEEGRRRGYVETLFGRRRYVPDLEARVKSVREAAERMAFNMPVQGTAADLMKLAMVKLFPRLEEMGARMLLQVHDELVLEAPKERAEAVARLAKEVMEGVYPLAVPLEVEVGIGEDWLSAKE
modifications: Klentaq-1
Question: With B3 as the molecule, how does the “melting curve profile in crude soil samples” value (630 bp CCR5 gene target) read?
Answer: showed a melting curve at very low SYBR concentration

Question: And the “SYBR concentration above which amplification failed” value [2]?
Answer: higher than 1 ×
